Test results from US20200155655A1 (GACHON UNIVERSITY OF INDUSTRY ACADEMIC COOPERATION …, published 2020).
Each block holds one binder with its values, some of them ahead of it.

Legend:
[1] = target: T1, leucyl-tRNA synthetase (LRS), endogenous in MEF cell lysate (UniProt Q8BMJ2 1-1178); test: co-immunoprecipitation from MEF cell lysate, Western blot
T1 construct: Endogenous protein immunoprecipitated from MEF cells
Description: Particularly, MEF cells stimulated by amino acids by the same manner as described in Example <1-1> were washed with cold PBS. At this time, MEF cells unstimulated with amino acids were used as the control. The cells were lysed in mild lysis buffer (MLB: 10 mM Tris (pH 7.5), 2 mM EDTA, 100 mM NaCl, […], 50 mM NaF, 1 mM Na₃VO₄ and protease inhibitor cocktail (Sigma)). On the other hand, for immunoprecipitation of LRS, the cells were lysed in MIPT buffer. Then, the lysate was microcentrifuged at 13,000×g for 10 minutes to collect supernatant. An antibody was added to the supernatant at 4° C., followed by immunoprecipitation. Reaction was induced in the presence of protein G-agarose or M2-beads (Sigma). The beads were washed with lysis buffer 3 to 5 times, followed by Western blotting according to the conventional method. Immunoprecipitation for Vps34 was performed with protein G-agarose beads, and immunoprecipitation for Flag-LRS was performed with M2-beads.

[2] = target: T1, leucyl-tRNA synthetase (LRS), …; test: immunoprecipitation with Atg14L antibody from MEF cell lysate, Western blot

T1 sequence (Q8BMJ2 whole entry): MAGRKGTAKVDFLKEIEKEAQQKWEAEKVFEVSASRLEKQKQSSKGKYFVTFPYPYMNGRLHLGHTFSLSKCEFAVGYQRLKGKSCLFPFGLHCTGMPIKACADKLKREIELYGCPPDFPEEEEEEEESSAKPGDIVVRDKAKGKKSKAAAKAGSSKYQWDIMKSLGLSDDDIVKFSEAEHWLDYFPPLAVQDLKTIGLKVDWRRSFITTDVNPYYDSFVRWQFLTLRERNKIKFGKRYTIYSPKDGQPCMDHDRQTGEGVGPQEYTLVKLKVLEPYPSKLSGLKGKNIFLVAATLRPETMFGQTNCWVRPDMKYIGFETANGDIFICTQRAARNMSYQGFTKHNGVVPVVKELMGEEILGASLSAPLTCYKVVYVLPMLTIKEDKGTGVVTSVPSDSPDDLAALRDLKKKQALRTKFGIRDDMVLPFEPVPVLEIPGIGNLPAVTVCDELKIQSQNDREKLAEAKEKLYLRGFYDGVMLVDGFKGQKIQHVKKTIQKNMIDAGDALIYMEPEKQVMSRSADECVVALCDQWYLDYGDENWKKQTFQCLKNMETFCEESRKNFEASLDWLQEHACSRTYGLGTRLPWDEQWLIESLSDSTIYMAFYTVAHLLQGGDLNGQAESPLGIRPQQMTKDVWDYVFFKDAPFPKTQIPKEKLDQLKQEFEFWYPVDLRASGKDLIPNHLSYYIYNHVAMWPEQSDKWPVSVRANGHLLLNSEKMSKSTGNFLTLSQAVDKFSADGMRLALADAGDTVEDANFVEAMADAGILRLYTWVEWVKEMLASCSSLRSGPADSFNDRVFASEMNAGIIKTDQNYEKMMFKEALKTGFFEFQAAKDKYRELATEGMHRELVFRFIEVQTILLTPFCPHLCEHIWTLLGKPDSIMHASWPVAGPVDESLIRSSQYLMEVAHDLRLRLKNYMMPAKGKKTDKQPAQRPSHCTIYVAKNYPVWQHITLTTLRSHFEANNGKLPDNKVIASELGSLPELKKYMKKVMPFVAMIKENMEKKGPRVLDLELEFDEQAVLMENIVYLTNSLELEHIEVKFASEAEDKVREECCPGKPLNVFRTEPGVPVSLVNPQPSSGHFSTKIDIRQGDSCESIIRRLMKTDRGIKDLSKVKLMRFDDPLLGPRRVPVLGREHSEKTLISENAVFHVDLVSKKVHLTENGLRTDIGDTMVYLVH

binding result [1]: binds
B1: Vps34 (vacuolar protein sorting 34), endogenous in MEF cell lysate (enzyme, UniProt Q6PF93 1-887, looked up)
chain: MGEAEKFHYIYSCDLDINVQLKIGSLEGKREQKSYKAVLEDPMLKFSGLYQETCSDLYVTCQVFAEGKPLALPVRTSYKAFSTRWNWNEWLKLPVKYPDLPRNAQVALTIWDVYGPGSAVPVGGTTVSLFGKYGMFRQGMHDLKVWPNVEADGSEPTRTPGRTSSTLSEDQMSRLAKLTKAHRQGHMVKVDWLDRLTFREIEMINESEKRSSNFMYLMVEFRCVKCDDKEYGIVYYEKDGDESSPILTSFELVKVPDPQMSMENLVESKHHKLARSLRSGPSDHDLKPNATTRDQLNIIVSYPPTKQLTYEEQDLVWKFRYYLTNQEKALTKFLKCVNWDLPQEAKQALELLGKWKPMDVEDSLELLSSHYTNPTVRRYAVARLRQADDEDLLMYLLQLVQALKYENFDDIKNGLEPTKKDSQTSASESLSNSGVSSGDIDSSQIITNPLPPVASPPPASKAKEVSDGENLEQDLCTFLISRACKNSTLANYLYWYVIVECEDQDTQQRDPKTHEMYLNVMRRFSQALLKGDKSVRVMRSLLAAQQTFVDRLVHLMKAVQRESGNRKKKNERLQALLGDNEKMNLSDVELIPLPLEPQVKIRGIIPETATLFKSALMPAQLFFKTEDGGKYPVIFKHGDDLRQDQLILQIISLMDKLLRKENLDLKLTPYKVLATSTKHGFMQFIQSVPVAEVLDTEGSIQNFFRKYAPSETGPYGISAEVMDTYVKSCAGYCVITYILGVGDRHLDNLLLTKTGKLFHIDFGYILGRDPKPLPPPMKLNKEMVEGMGGTQSEQYQEFRKQCYTAFLHLRRYSNLILNLFSLMVDANIPDIALEPDKTVKKVQDKFRLDLSDEEAVHYMQSLIDESVHALFAAVVEQIHKFAQYWRK
notes: Endogenous protein from MEF cells; also called Vps34 immune complex

binding result [2]: no binding
B2: Atg14L, endogenous in MEF cell lysate (other, UniProt Q8CDJ3 1-492, looked up)
chain: MASPSGKGSWTPEAPGFGPRALARDLVDSVDDAEGLYVAVERCPLCNTTRRRLTCAKCVQSGDFVYFDGRDRERFIDKKERLSQLKNKQEEFQKEVLKAMEGKRLTDQLRWKIMSCKMRIEQLKQTICKGNEEMKKNSEGLLKNKEKNQKLYSRAQRHQEKKEKIQRHNRKLGDLVEKKTIDLKSHYERLARLRRSHILELTSIIFPIDEVKTSGRDPADVSSETDSAMTSSMVSKLAEARRTTYLSGRWVCDDHNGDTSISITGPWISLPNNGDYSAYYNWVEEKKTTQGPDMEHNNPAYTISAALGYATQLVNIVSHILDINLPKKLCNSEFCGENLSKQKLTRAVRKLNANILYLCSSQHVNLDQLQPLHTLRNLMHLVSPRSEHLGRSGPFEVRADLEESMEFVDPGVAGESDASGDERVSDEETDLGTDWENLPSPRFCDIPSQPVEVSQSQSTQVSPPIASSSAGGMISSAAASVTSWFKAYTGHR
notes: Endogenous protein; also called autophagic Vps34 complex
